Here are results for five molecules from patent US20240285725A1 (APELLIS PHARMACEUTICALS, published 2024).

Common to all, as to assay: cell-based or functional assay
Assay [1] has as its target T1, complement component C3 (human, UniProt P01024 23-1663).
Assay [2] deals with T1, complement component C3. This is another data set of the same source.
The target of assay [3] is T1, complement component C3. The source holds these as a separate data set.

B1: CA28-AEEAc-Lys(mPEG40K-carbonyl) (peptide)
peptide: ICVWQDWGAHRCTK
modifications: not fully specified; N-terminal acetyl; 1-methyl-tryptophan at position 4; disulfide Cys2-Cys12; AEEAc between Thr13 and Lys; C-terminal amide; linear 40 kD mPEG (NOF ME-400TS) on the Lys side chain
Take B1: in assay [1], the “IC50 (read off the curve), classical-pathway complement activation (C3b deposition ELISA, human plasma)” value (shortened to “IC50 (read off the curve)”) is ~700 nM.

B2: CA28-AEEAc-Lys(mPEG40K-succinyl) (peptide)
peptide: ICVWQDWGAHRCTK
modifications: N-terminal acetyl; 1-methyl-tryptophan at position 4; disulfide Cys2-Cys12; AEEAc between Thr13 and Lys; C-terminal amide; linear 40 kD mPEG (NOF ME-400CS) on the Lys side chain
With B2, the “IC50 (read off the curve)” value in assay [1] was ~700 nM.

B3: CA28-AEEAc-Lys(mPEG40K-hexanoyl) (peptide)
peptide: ICVWQDWGAHRCTK
modifications: N-terminal acetyl; 1-methyl-tryptophan at position 4; disulfide Cys2-Cys12; AEEAc between Thr13 and Lys; C-terminal amide; linear 40 kD mPEG (NOF ME-400HS) on the Lys side chain
Take B3: in assay [1], the “IC50 (read off the curve)” value was ~700 nM.

B4: CA28-AEEAc-Lys-(PEG40k) (peptide)
peptide: ICVWQDWGAHRCTK
modifications: not fully specified; N-terminal acetyl; 1-methyl-tryptophan at position 4; disulfide Cys2-Cys12; AEEAc between Thr13 and Lys; C-terminal amide; linear monofunctional 40 kD PEG (NOF ME-400GS) on the Lys side chain
On to B4, for which the “IC50 (read off the curve)” value in assay [1] is ~700 nM.

B5: (CA28-AEEAc)8-PEG40k (peptide)
peptide: ICVWQDWGAHRCTK
modifications: N-terminal acetyl; 1-methyl-tryptophan at position 4; disulfide Cys2-Cys12; AEEAc between Thr13 and Lys; C-terminal amide; Lys side chain coupled to an arm of an eight-arm 40 kD PEG (NOF HGEO-400GS)
As for B5, the “IC50 on a molar basis (corrected for 7.5 CA28 moieties per molecule), classical complement inhibition assay” value in assay [2] is ~260 nM. The “IC50, classical complement inhibition assay (C3b deposition ELISA, human plasma), as a function of CA28 moiety concentration” value in assay [3] was found to be 1930 nM.
